Test results reported in IntAct's records for PubMed 21763699.

B1: Peripheral plasma membrane protein CASK (Homo sapiens), O14936 (parent)
chain: MADDDVLFEDVYELCEVIGKGPFSVVRRCINRETGQQFAVKIVDVAKFTSSPGLSTEDLKREASICHMLKHPHIVELLETYSSDGMLYMVFEFMDGADLCFEIVKRADAGFVYSEAVASHYMRQILEALRYCHDNNIIHRDVKPHCVLLASKENSAPVKLGGFGVAIQLGESGLVAGGRVGTPHFMAPEVVKREPYGKPVDVWGCGVILFILLSGCLPFYGTKERLFEGIIKGKYKMNPRQWSHISESAKDLVRRMLMLDPAERITVYEALNHPWLKERDRYAYKIHLPETVEQLRKFNARRKLKGAVLAAVSSHKFNSFYGDPPEELPDFSEDPTSSGLLAAERAVSQVLDSLEEIHALTDCSEKDLDFLHSVFQDQHLHTLLDLYDKINTKSSPQIRNPPSDAVQRAKEVLEEISCYPENNDAKELKRILTQPHFMALLQTHDVVAHEVYSDEALRVTPPPTSPYLNGDSPESANGDMDMENVTRVRLVQFQKNTDEPMGITLKMNELNHCIVARIMHGGMIHRQGTLHVGDEIREINGISVANQTVEQLQKMLREMRGSITFKIVPSYRTQSSSCERDSPSTSRQSPANGHSSTNNSVSDLPSTTQPKGRQIYVRAQFEYDPAKDDLIPCKEAGIRFRVGDIIQIISKDDHNWWQGKLENSKNGTAGLIPSPELQEWRVACIAMEKTKQEQQASCTWFGKKKKQYKDKYLAKHNAVFDQLDLVTYEEVVKLPAFKRKTLVLLGAHGVGRRHIKNTLITKHPDRFAYPIPHTTRPPKKDEENGKNYYFVSHDQMMQDISNNEYLEYGSHEDAMYGTKLETIRKIHEQGLIAILDVEPQALKVLRTAEFAPFVVFIAAPTITPGLNEDESLQRLQKESDILQRTYAHYFDLTIINNEIDETIRHLEEAVELVCTAPQWVPVSWVY
B2: Caskin-1 (Homo sapiens), Q8WXD9 (parent)
chain: MGKEQELVQAVKAEDVGTAQRLLQRPRPGKAKLLGSTKKINVNFQDPDGFSALHHAALNGNTELISLLLEAQAAVDIKDNKGMRPLHYAAWQGRKEPMKLVLKAGSAVNIPSDEGHIPLHLAAQHGHYDVSEMLLQHQSNPCMVDNSGKTPLDLACEFGRVGVVQLLLSSNMCAALLEPRPGDATDPNGTSPLHLAAKNGHIDIIRLLLQAGIDINRQTKSGTALHEAALCGKTEVVRLLLDSGINAHVRNTYSQTALDIVHQFTTSQASREIKQLLREASAALQVRATKDYCNNYDLTSLNVKAGDIITVLEQHPDGRWKGCIHDNRTGNDRVGYFPSSLGEAIVKRAGSRAGTEPSLPQGSSSSGPSAPPEEIWVLRKPFAGGDRSGSISGMAGGRGSGGHALHAGSEGVKLLATVLSQKSVSESGPGDSPAKPPEGSAGVARSQPPVAHAGQVYGEQPPKKLEPASEGKSSEAVSQWLTAFQLQLYAPNFISAGYDLPTISRMTPEDLTAIGVTKPGHRKKIAAEISGLSIPDWLPEHKPANLAVWLSMIGLAQYYKVLVDNGYENIDFITDITWEDLQEIGITKLGHQKKLMLAVRKLAELQKAEYAKYEGGPLRRKAPQSLEVMAIESPPPPEPTPADCQSPKMTTFQDSELSDELQAAMTGPAEVGPTTEKPSSHLPPTPRATTRQDSSLGGRARHMSSSQELLGDGPPGPSSPMSRSQEYLLDEGPAPGTPPREARPGRHGHSIKRASVPPVPGKPRQVLPPGTSHFTPPQTPTKTRPGSPQALGGPHGPAPATAKVKPTPQLLPPTERPMSPRSLPQSPTHRGFAYVLPQPVEGEVGPAAPGPAPPPVPTAVPTLCLPPEADAEPGRPKKRAHSLNRYAASDSEPERDELLVPAAAGPYATVQRRVGRSHSVRAPAGADKNVNRSQSFAVRPRKKGPPPPPPKRSSSALASANLADEPVPDAEPEDGLLGVRAQCRRASDLAGSVDTGSAGSVKSIAAMLELSSIGGGGRAARRPPEGHPTPRPASPEPGRVATVLASVKHKEAIGPGGEVVNRRRTLSGPVTGLLATARRGPGESADPGPFVEDGTGRQRPRGPSKGEAGVEGPPLAKVEASATLKRRIRAKQNQQENVKFILTESDTVKRRPKAKEREAGPEPPPPLSVYHNGTGTVRRRPASEQAGPPELPPPPPPAEPPPTDLAHLPPLPPPEGEARKPAKPPVSPKPVLTQPVPKLQGSPTPTSKKVPLPGPGSPEVKRAHGTPPPVSPKPPPPPTAPKPVKAVAGLPSGSAGPSPAPSPARQPPAALAKPPGTPPSLGASPAKPPSPGAPALHVPAKPPRAAAAAAAAAAAPPAPPEGASPGDSARQKLEETSACLAAALQAVEEKIRQEDAQGPRDSAAEKSTGSILDDIGSMFDDLADQLDAMLE
B3: Peripheral plasma membrane protein CASK (Homo sapiens), O14936 (parent)
chain: B1 chain
partner: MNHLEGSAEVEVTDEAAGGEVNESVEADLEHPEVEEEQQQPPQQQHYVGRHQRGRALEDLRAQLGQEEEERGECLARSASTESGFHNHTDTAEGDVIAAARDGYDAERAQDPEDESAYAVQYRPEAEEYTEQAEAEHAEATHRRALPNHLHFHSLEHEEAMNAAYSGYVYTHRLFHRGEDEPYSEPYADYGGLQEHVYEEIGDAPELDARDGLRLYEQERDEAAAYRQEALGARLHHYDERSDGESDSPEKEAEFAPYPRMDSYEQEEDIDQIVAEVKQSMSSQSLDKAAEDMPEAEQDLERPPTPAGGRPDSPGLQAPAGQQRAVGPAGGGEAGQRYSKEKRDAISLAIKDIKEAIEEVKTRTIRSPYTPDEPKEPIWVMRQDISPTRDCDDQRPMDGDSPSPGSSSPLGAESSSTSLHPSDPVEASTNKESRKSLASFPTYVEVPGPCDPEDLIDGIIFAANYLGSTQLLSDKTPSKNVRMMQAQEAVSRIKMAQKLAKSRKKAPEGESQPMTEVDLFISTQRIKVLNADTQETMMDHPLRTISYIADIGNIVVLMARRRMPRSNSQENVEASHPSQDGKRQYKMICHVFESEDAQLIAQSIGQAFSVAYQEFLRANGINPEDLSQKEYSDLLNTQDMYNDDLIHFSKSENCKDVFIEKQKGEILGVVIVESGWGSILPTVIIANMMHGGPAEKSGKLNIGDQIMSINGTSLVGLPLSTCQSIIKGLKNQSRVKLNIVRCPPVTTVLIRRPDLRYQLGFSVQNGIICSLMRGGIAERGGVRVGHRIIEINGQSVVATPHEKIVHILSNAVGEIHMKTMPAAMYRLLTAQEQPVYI

Variants of: B1
Settings: with tiam1_human TIAM1, Q13009
Sequence of tiam1_human TIAM1, Q13009 (Q13009 whole entry): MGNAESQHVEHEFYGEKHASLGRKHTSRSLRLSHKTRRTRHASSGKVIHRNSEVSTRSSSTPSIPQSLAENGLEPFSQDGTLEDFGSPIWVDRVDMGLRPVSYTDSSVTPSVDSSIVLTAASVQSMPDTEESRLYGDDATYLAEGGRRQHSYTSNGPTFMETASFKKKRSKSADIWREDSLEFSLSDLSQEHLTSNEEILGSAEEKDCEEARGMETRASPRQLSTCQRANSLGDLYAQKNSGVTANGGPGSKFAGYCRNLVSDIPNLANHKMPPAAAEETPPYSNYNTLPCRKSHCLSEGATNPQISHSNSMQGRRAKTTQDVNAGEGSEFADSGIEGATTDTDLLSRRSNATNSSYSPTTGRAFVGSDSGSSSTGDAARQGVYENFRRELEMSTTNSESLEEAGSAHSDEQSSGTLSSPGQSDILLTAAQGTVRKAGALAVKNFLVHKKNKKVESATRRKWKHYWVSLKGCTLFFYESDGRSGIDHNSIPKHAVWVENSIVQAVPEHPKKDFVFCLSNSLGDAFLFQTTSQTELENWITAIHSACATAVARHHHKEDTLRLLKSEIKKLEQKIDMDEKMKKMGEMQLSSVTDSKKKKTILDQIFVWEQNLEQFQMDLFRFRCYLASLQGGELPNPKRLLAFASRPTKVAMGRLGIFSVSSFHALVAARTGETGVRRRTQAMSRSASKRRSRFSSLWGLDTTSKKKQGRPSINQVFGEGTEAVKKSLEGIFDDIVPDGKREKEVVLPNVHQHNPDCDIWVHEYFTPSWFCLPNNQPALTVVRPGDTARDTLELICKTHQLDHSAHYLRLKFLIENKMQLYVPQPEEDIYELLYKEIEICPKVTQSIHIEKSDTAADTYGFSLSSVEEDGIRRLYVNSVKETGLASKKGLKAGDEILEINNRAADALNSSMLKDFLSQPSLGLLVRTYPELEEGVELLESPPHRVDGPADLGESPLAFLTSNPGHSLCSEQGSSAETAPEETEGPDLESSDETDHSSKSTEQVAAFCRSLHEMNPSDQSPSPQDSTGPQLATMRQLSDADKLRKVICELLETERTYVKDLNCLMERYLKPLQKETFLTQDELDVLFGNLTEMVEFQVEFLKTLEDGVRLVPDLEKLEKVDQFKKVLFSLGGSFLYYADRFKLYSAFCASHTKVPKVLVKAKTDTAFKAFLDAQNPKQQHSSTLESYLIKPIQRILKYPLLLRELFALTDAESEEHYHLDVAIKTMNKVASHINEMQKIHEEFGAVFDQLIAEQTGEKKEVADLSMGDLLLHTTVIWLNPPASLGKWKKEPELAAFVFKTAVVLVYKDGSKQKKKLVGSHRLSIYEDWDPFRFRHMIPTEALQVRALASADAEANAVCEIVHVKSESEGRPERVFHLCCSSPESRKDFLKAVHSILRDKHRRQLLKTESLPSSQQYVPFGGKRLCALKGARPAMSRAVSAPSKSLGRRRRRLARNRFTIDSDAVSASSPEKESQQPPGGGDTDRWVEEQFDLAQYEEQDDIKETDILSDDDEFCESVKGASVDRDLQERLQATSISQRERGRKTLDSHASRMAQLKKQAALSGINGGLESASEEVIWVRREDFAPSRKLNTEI

**Q.** How did the “effect of a mutation on the interaction” value turn out when V117D was run?
**A.** disrupting interaction

**Q.** For V117Q, which “effect of a mutation on the interaction” value is on record?
**A.** disrupting interaction

Variants of: B1
Settings: with cski1_human CASKIN1, Q8WXD9

**Q.** V117D was tested. Which “effect of a mutation on the interaction” value did it give?
**A.** disrupting interaction

**Q.** Which “effect of a mutation on the interaction” value does the source give for V117Q here?
**A.** disrupting interaction

Variants of: B2
Settings: with cskp_human CASK, O14936

**Q.** How did the “effect of a mutation on the interaction” value turn out when W376A was run?
**A.** disrupting interaction

**Q.** For I375A, which “effect of a mutation on the interaction” value is on record?
**A.** disrupting interaction

**Q.** How did the “effect of a mutation on the interaction” value turn out when R379A was run?
**A.** decreasing interaction

**Q.** How did the “effect of a mutation on the interaction” value turn out when V377A was run?
**A.** decreasing interaction

Variants of: B2
Settings: with cskp_human CASK

**Q.** I375A;W376A;V377A was tested. Which “effect of a mutation on the interaction” value did it give?
**A.** disrupting interaction

**Q.** How did the “effect of a mutation on the interaction” value turn out when L378A;R379A;K380A was run?
**A.** disrupting interaction

Variants of: B3
Settings: with apba1_human APBA1, Q02410

**Q.** V117D was tested. Which “effect of a mutation on the interaction” value did it give?
**A.** disrupting interaction

**Q.** How did the “effect of a mutation on the interaction” value turn out when V117Q was run?
**A.** disrupting interaction
